Measurements reported in article PMC6557900 (Nature Communications, 2019).
Where no end group is shown, it is not given here. [ ]: non-standard residue; d: D form. pY = N[C@@H](Cc1ccc(OP(=O)(O)O)cc1)C(=O)O

B1: GHR_pY487 phosphopeptide (growth hormone receptor) (peptide)
peptide: NIDF[pY]AQVSDI-NH2
notes: growth hormone receptor (GHR), 11-residue peptide around pY487; source: synthetic peptide (solid-phase, Fmoc, Rink amide resin), HPLC purified
B2: EpoR_pY426 peptide, alanine at pY(+6) (peptide)
chain: ASFE[pY]TILDPA-NH2
modifications: N-terminus assumed
SMILES: CC[C@H](C)[C@H](NC(=O)[C@@H](NC(=O)[C@H](Cc1ccc(OP(=O)(O)O)cc1)NC(=O)[C@H](CCC(=O)O)NC(=O)[C@H](Cc1ccccc1)NC(=O)[C@H](CO)NC(=O)[C@H](C)N)[C@@H](C)O)C(=O)N[C@@H](CC(C)C)C(=O)N[C@@H](CC(=O)O)C(=O)N1CCC[C@H]1C(=O)N[C@@H](C)C(N)=O
B3: EpoR_pY426 peptide, alanine at pY(+1) (peptide)
chain: ASFE[pY]AILDPS-NH2
modifications: N-terminus assumed
SMILES: CC[C@H](C)[C@H](NC(=O)[C@H](C)NC(=O)[C@H](Cc1ccc(OP(=O)(O)O)cc1)NC(=O)[C@H](CCC(=O)O)NC(=O)[C@H](Cc1ccccc1)NC(=O)[C@H](CO)NC(=O)[C@H](C)N)C(=O)N[C@@H](CC(C)C)C(=O)N[C@@H](CC(=O)O)C(=O)N1CCC[C@H]1C(=O)N[C@@H](CO)C(N)=O

molecular target: T1, SOCS2-ElonginB-ElonginC complex, wild-type (human | , UniProt O14508 32-198; Q15370 1-104; Q15369 17-112); experiment: ITC; peptide (750 or 1500 μM) titrated into SBC (50 μM); 100 mM HEPES pH 7.5, 50 mM NaCl, 0.5 mM TCEP, 298 K; one-set-of-site model; conditions: both partners purified
T1 construct: Untagged in ITC and NMR; also called SBC; wild-type SBC; source: E. coli BL21(DE3), co-expressed, purified (HisTrap, TEV cleavage, second HisTrap, SEC Superdex 75); not shown: His6, N-terminal, cleaved; copies: + +
T1 sequence (O14508 32-198, chain 1 of 3): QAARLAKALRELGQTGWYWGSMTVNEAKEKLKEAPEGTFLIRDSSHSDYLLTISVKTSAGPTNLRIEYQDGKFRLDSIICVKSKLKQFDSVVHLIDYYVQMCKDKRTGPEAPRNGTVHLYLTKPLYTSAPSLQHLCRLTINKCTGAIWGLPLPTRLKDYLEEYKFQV
T1 sequence (Q15370 1-104, chain 2 of 3): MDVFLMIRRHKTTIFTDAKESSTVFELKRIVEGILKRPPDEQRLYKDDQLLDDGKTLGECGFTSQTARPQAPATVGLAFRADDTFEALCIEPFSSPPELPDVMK
T1 sequence (Q15369 17-112, chain 3 of 3): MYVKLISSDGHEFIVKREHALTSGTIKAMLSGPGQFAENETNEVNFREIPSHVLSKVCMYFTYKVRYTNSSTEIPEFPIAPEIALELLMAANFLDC

B1 was tested. Which Kd did it give?
Its Kd is 2.3 µM.

molecular target: T2, SOCS2-ElonginB-ElonginC complex, wild-type (human | , UniProt O14508 32-198; Q15370 1-104; Q15369 17-112); experiment: 19F ligand-observed CPMG NMR displacement assay; peptide (GHR 10 μM, EpoR 50 μM) displaces the fluorinated pY analog spy molecule 3 (100 μM) from SBC (5 μM); 20 mM HEPES pH 8, 50 mM NaCl, 1 mM DTT, 20% D2O, 298 K; conditions: both partners purified
T2 sequence (O14508 32-198, chain 1 of 3): as the sequence (O14508 32-198, chain 1 of 3) above
T2 sequence (Q15370 1-104, chain 2 of 3): as the sequence (Q15370 1-104, chain 2 of 3) above
T2 sequence (Q15369 17-112, chain 3 of 3): as the sequence (Q15369 17-112, chain 3 of 3) above

How did the Ki turn out when PRPD[pY]TSIHIV-NH2 [GHR_pY595 peptide V(−3)R] was run?
Its Ki is 20.6 µM.

With ASFE[pY]TALDPS-NH2 [EpoR_pY426 peptide, alanine at pY(+2)] as the binder, how does the Ki read?
Its Ki is 17.2 µM.

With ASFA[pY]TILDPS-NH2 [EpoR_pY426 peptide, alanine at pY(−1)] as the binder, how does the Ki read?
The Ki was 23.5 µM.

Which Ki does the source give for PVPD[pY]TSAHIV-NH2 [GHR_pY595 peptide, alanine at pY(+3)] here?
The Ki was 3.4 µM.

For PYPD[pY]TSIHIV-NH2 [GHR_pY595 peptide V(−3)Y], which Ki is on record?
The Ki was 3.3 µM.

With PAPD[pY]TSIHIV-NH2 [GHR_pY595 peptide, alanine at pY(−3)] as the binder, how does the Ki read?
The Ki was 3.4 µM.

For B2, which Ki is on record?
Its Ki is 11.3 µM.

For B3, which Ki is on record?
The Ki was 10.3 µM.

Which Ki does the source give for PVPD[pY]TSIAIV-NH2 [GHR_pY595 peptide, alanine at pY(+4)] here?
The Ki was 18.5 µM.

With PVPD[pY]ASIHIV-NH2 [GHR_pY595 peptide, alanine at pY(+1)] as the binder, how does the Ki read?
Its Ki is 0.5 µM.

For ASFE[pY]TIADPS-NH2 [EpoR_pY426 peptide, alanine at pY(+3)], which Ki is on record?
The Ki was 20.4 µM.

Which Ki does the source give for ASFE[pY]TILAPS-NH2 [EpoR_pY426 peptide, alanine at pY(+4)] here?
Its Ki is 14.1 µM.

ASFE[pY]TILDAS-NH2 [EpoR_pY426 peptide, alanine at pY(+5)] was tested. Which Ki did it give?
The Ki was 6.9 µM.

molecular target: T2, SOCS2-ElonginB-ElonginC complex, …; experiment: SPR; biotinylated SBC (wild-type or mutant) immobilised, peptide injected at 0.08-60 μM; 20 mM HEPES pH 7.5, 150 mM NaCl, 1 mM TCEP, 0.005% Tween20, 10 °C; steady-state affinity, 1:1 model; conditions: both partners purified

PRPD[pY]TSIHIV-NH2 [GHR_pY595 peptide V(−3)R] was tested. Which Kd did it give?
The Kd was 9 µM.

For ASFE[pY]TALDPS-NH2 [EpoR_pY426 peptide, alanine at pY(+2)], which Kd is on record?
Its Kd is 30.8 µM.

With ASFA[pY]TILDPS-NH2 [EpoR_pY426 peptide, alanine at pY(−1)] as the binder, how does the Kd read?
Its Kd is 21.7 µM.

How did the Kd turn out when PVPD[pY]TSAHIV-NH2 [GHR_pY595 peptide, alanine at pY(+3)] was run?
Its Kd is 3.7 µM.

Which Kd does the source give for PYPD[pY]TSIHIV-NH2 [GHR_pY595 peptide V(−3)Y] here?
Its Kd is 3.3 µM.

B2 was tested. Which Kd did it give?
The Kd was 16.4 µM.

How did the Kd turn out when B3 was run?
Its Kd is 17.1 µM.

Which Kd does the source give for PVPD[pY]TSIAIV-NH2 [GHR_pY595 peptide, alanine at pY(+4)] here?
Its Kd is 6.7 µM.

Which Kd does the source give for PVPD[pY]ASIHIV-NH2 [GHR_pY595 peptide, alanine at pY(+1)] here?
The Kd was 1 µM.

With PVPD[pY]TSIHIA-NH2 [GHR_pY595 peptide, alanine at pY(+6)] as the binder, how does the Kd read?
The Kd was 1.9 µM.

Which Kd does the source give for ASFE[pY]TIADPS-NH2 [EpoR_pY426 peptide, alanine at pY(+3)] here?
The Kd was 32.3 µM.

Which Kd does the source give for ASFE[pY]TILAPS-NH2 [EpoR_pY426 peptide, alanine at pY(+4)] here?
Its Kd is 18 µM.

How did the Kd turn out when ASFE[pY]TILDAS-NH2 [EpoR_pY426 peptide, alanine at pY(+5)] was run?
Its Kd is 8.9 µM.

molecular target: T3, SOCS2(L106V)-ElonginB-ElonginC complex (human | , UniProt O14508 32-198; Q15370 1-104; Q15369 17-112, L106V); experiment: as above; conditions: both partners purified
T3 construct: also called SBC L106V; source: E. coli BL21(DE3), co-expressed, purified (as wild-type SBC); not shown: His6, N-terminal, cleaved; copies: + +
T3 sequence (O14508 32-198 L106V, chain 1 of 3): as the sequence (O14508 32-198, chain 1 of 3) above, with L75V counted along it
T3 sequence (Q15370 1-104, chain 2 of 3): as the sequence (Q15370 1-104, chain 2 of 3) above
T3 sequence (Q15369 17-112, chain 3 of 3): as the sequence (Q15369 17-112, chain 3 of 3) above

How did the Kd turn out when B1 was run?
The Kd was 8.9 µM.

molecular target: T4, SOCS2(C133Y)-ElonginB-ElonginC complex (human | , UniProt O14508 32-198; Q15370 1-104; Q15369 17-112, C133Y); experiment: as above; conditions: both partners purified
T4 construct: also called SBC C133Y; source: E. coli BL21(DE3), co-expressed, purified (as wild-type SBC); not shown: His6, N-terminal, cleaved; copies: + +
T4 sequence (O14508 32-198 C133Y, chain 1 of 3): as the sequence (O14508 32-198, chain 1 of 3) above, with C102Y counted along it
T4 sequence (Q15370 1-104, chain 2 of 3): as the sequence (Q15370 1-104, chain 2 of 3) above
T4 sequence (Q15369 17-112, chain 3 of 3): as the sequence (Q15369 17-112, chain 3 of 3) above

For B1, which Kd is on record?
Its Kd is 7.7 µM.

molecular target: T1, SOCS2-ElonginB-ElonginC complex, …; experiment: as above; conditions: both partners purified

With B1 as the binder, how does the Kd read?
Its Kd is 5.1 µM.
